Laboratory results from article PMC8906541, “A conserved arginine in NS5 binds genomic 3′ stem–loop RNA for primer-independent initiation of flavivirus RNA replication”.

Experiments:
NS5 WT [1] = target: T1, NS5 WT (Dengue virus 2, UniProt A9LIC9 2492-3391); experiment: EMSA; Kd stated only as micromolar range; value in figure; conditions: protein: recombinant; tags: N-terminal His6-TEV, cleaved; stem-loop
NS5 WT [2] = target: T1, NS5 WT; experiment: EMSA; Kd value only in figure; >100-fold excess yeast tRNA does not affect binding; conditions: protein: recombinant; tags: N-terminal His6-TEV, cleaved; stem-loop

Row | Binder | binding result (NS5 WT [1]) | binding result (NS5 WT [2])
1 | 5'SLA (structured_RNA) RNA: AGUUGUUAGUCUACGUGGACCGACAAAGACAGAUUCUUUGAGGAAGCUAAGCUUAACGUAGUUCUAACAG | binds | –
2 | 3'SL (structured_RNA) RNA: AGAUCCUGCUGUCUCCUCAGCAUCAUUCCAGGCACAGAACGCCAGAAAAUGGAAUGGUGCUGUUGAAUCAACAGGUUCU | – | binds
